# Measurements reported in patent EP2216341A1, “Transferrin variants and conjugates” (Novozymes Biopharma UK Limited, priority 2009, dated 2010).
# Biological target: transferrin receptors on human K562 erythroleukemic cells
# Assay: cell-based or functional assay
Total Iron Uptake Bmax (fmol 55Fe/10^6 cells x 25min),Specific iron uptake Bmax (fmol 55Fe/10^6 cells x 25min),Specific iron uptake Kd (nM transferrin) [nM],Substance
4250,,,Human plasma-derived apo-transferrin (Calbiochem 616419) (from UniProt P02787 20-698) (ligand)
3290,2430,154,"Fluorescein conjugated thiotransferrin (S28C, S415A, T613A) (ligand)"
4160,3250,189,"Fluorescein conjugated thiotransferrin (S415C, T613A) (ligand)"
3690,2360,203,"recombinant thiotransferrin (S415C, T613A) (ligand)"
4210,3020,209,"recombinant thiotransferrin (S28C, S415A, T613A) (ligand)"
4050,2830,130,"recombinant transferrin (S415A, T613A) (ligand)"
